{
  "source": "patent US20130071381A1",
  "about": "(Takeda / Millennium, published 2013)",
  "key": {"[1]": {"biological_target": "T1, CCR1 expressed on L1/2 transfectants (UniProt P32246 1-355, limits assumed)", "T1 construct": "whole, on cells; also called CCR1 transfectants", "T1 sequence (looked up)": "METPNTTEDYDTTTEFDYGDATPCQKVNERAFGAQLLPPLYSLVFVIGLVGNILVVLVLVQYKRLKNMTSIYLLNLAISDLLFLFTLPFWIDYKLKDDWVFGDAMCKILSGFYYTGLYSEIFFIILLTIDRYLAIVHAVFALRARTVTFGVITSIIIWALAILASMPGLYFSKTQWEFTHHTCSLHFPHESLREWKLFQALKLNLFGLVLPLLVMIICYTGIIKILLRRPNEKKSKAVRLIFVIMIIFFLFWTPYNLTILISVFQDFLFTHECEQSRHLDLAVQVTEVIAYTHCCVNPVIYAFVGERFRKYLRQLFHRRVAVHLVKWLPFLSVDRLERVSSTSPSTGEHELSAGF", "assay": "flow cytometry on L1/2 transfectants, hybridoma supernatant", "method": "(§1) For the staining of cultured transfectant cell lines 0.5×10⁶ cells in 50 μl were resuspended in PBS+1% FCS in a 96 well polystyrene V-bottom plate. 50 μl of primary antibody supernatants or HT medium (negative control) were added, and the samples were incubated at 4° C. for 30 min. 100 μl of PBS were added and the cells were pelleted by centrifugation and washed once with PBS. The pellet was resuspended in 100 μl PBS+1% FCS containing FITC-conjugated goat anti-mouse IgG antibody (a 1:250 dilution) and incubated for thirty minutes at […] in the dark. The cells were washed twice with PBS, resuspended in PBS, and analyzed by flow cytometry with a FacScan cytometer using the CellQuest software (Becton-Dickenson) Cells were fixed with PBS/1% formaldehyde if they were not to be analyzed the same day. Monoclonal antibodies 1D9 and 8G2 stain CCR2 transfectants but not CCR1 or CCR5 transfectants (FIGS. 1A-10)."}, "[2]": {"biological_target": "T2, CCR5 expressed on L1/2 transfectants (UniProt P51681 1-352, limits assumed)", "T2 construct": "whole, on cells; also called CCR5 transfectants", "T2 sequence (P51681 whole entry)": "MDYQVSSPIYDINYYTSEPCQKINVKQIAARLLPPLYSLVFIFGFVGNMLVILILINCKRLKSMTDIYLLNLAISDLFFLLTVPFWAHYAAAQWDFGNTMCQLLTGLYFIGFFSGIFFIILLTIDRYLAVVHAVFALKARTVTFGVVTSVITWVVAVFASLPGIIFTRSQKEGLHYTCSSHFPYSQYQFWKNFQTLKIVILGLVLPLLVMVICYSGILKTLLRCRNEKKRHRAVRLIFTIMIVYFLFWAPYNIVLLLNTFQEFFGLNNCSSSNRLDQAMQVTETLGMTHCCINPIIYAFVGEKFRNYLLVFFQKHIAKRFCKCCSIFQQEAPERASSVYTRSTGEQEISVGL", "assay": "flow cytometry on L1/2 transfectants, hybridoma supernatant", "method": "as §1"}, "[3]": {"biological_target": "T3, human CC-chemokine receptor 2 (CCR2), endogenous on THP-1 cells, THP-1 membranes and human blood cells (human, UniProt P41597 1-374)", "T3 construct": "whole, on cells; The isoform is not specified for THP-1 cells or PBMC; also called CKR-2; MCP-1RA", "T3 sequence (P41597 whole entry, canonical isoform)": "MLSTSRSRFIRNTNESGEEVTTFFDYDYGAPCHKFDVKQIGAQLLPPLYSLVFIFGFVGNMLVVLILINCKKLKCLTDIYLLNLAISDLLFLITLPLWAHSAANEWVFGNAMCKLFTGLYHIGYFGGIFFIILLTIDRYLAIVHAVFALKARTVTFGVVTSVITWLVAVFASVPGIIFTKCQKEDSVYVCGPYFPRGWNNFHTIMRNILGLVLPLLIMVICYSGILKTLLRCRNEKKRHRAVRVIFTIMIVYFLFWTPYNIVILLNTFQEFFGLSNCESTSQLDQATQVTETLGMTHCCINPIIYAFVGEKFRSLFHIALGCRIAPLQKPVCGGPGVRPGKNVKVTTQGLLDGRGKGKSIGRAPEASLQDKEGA", "assay": "competition with 0.1 nM [125I]MCP-1 on fresh PBMC, filtration and scintillation counting", "method": "(§2) MCP-1 binding was performed in a final volume of 0.1 ml of 50 mM Hepes pH 7.4, 1 mM CaCl₂, 5 mM MgCl₂, 0.02% sodium azide, 0.5% BSA (HBB), containing either 2.5 μg THP-1 membrane protein or 500,000 PBMC and 0.1 nM of [¹²⁵I]-MCP-1. Competition binding experiments were performed by including variable concentrations of unlabeled MCP-1, 1D9 antibody, or a negative control IgG2a. Nonspecific binding was determined following the addition of a 2500-fold excess of unlabeled MCP-1. Samples were incubated for 60 minutes at room temperature, and bound and free tracer were separated by filtration through 96-well GF/B filterplates presoaked in 0.3% polyethyleneimine. The filters were washed in HBB further supplemented with 0.5 M NaCl, dried, and the amount of bound radioactivity determined by liquid scintillation counting. mAb 1D9 inhibits [¹²⁵I]MCP-1 binding to THP-1 cell membranes with an IC₅₀ of about 0.004 μg/ml (approximately 0.02 nM; FIG. 4) and to fresh PBMC with an IC₅₀ of 0.04 μg/ml (approximately 0.2 nM; FIG. 5)."}, "[4]": {"biological_target": "T3, human CC-chemokine receptor 2 (CCR2), …", "assay": "competition with 0.1 nM [125I]MCP-1 on THP-1 cell membranes, filtration and scintillation counting", "method": "FIG. 4 illustrates that mAb 1D9 inhibits [¹²⁵I]MCP-1 binding to THP-1 cell membranes. 3.0 μg of THP-1 membrane protein was incubated with 0.1 nM [¹²⁵I]MCP-1 in the presence of various concentrations of 1D9 or the isotype-matched anti-CXCR3 antibody 1C6. The amount of bound tracer was determined by separation of free from bound by filtration and scintillation counting. The data was analyzed to determine the IC₅₀ value by non-linear regression using a 4-parameter logistic equation with KaleidaGraph software.\nas §2, with “Samples were incubated for 60 minutes at room temperature, and bound and free tracer were separated by filtration through 96-well GF/B filterplates presoaked in 0.3% polyethyleneimine.” left out"}},
  "note": "“And” between values parts separate entries of the source, which are not always exact repeats. Identical values can stand only once.",
  "data": [
    {"binder": "murine monoclonal antibody LS132.1D9 (antibody, V domains shown, Whole murine monoclonal antibody from hybridoma ATCC HB-12549, with a kappa light chain; The controls are called isotype-matched or murine IgG2a, which implies IgG2a; It was used as hybridoma supernatant in the FACS staining; also called mAb 1D9; mus-1D9) VH: EVQLVESGGGLVQPKGSLKLSCAASGFSFNAYAMNWVRQAPGKGLEWVARIRTKNNNYATYYADSVKDRYTISRDDSESMLFLQMNNLKTEDTAMYYCVTFYGNGVWGTGTTVTVSS VL: not shown", "values": [
      {"measurement": "binding result", "setting": "[1]", "result": "no binding"},
      {"measurement": "binding result", "setting": "[2]", "result": "no binding"},
      {"measurement": "IC50", "setting": "[3]", "result": "0.04 µg/mL and ~0.2 nM"},
      {"measurement": "IC50", "setting": "[4]", "result": "~0.004 µg/mL and ~0.02 nM"}
    ]}
  ]
}
